Test results from patent US20200031888.

Target: C3b (Comptech), P01024
Sequence (P01024 whole entry, looked up): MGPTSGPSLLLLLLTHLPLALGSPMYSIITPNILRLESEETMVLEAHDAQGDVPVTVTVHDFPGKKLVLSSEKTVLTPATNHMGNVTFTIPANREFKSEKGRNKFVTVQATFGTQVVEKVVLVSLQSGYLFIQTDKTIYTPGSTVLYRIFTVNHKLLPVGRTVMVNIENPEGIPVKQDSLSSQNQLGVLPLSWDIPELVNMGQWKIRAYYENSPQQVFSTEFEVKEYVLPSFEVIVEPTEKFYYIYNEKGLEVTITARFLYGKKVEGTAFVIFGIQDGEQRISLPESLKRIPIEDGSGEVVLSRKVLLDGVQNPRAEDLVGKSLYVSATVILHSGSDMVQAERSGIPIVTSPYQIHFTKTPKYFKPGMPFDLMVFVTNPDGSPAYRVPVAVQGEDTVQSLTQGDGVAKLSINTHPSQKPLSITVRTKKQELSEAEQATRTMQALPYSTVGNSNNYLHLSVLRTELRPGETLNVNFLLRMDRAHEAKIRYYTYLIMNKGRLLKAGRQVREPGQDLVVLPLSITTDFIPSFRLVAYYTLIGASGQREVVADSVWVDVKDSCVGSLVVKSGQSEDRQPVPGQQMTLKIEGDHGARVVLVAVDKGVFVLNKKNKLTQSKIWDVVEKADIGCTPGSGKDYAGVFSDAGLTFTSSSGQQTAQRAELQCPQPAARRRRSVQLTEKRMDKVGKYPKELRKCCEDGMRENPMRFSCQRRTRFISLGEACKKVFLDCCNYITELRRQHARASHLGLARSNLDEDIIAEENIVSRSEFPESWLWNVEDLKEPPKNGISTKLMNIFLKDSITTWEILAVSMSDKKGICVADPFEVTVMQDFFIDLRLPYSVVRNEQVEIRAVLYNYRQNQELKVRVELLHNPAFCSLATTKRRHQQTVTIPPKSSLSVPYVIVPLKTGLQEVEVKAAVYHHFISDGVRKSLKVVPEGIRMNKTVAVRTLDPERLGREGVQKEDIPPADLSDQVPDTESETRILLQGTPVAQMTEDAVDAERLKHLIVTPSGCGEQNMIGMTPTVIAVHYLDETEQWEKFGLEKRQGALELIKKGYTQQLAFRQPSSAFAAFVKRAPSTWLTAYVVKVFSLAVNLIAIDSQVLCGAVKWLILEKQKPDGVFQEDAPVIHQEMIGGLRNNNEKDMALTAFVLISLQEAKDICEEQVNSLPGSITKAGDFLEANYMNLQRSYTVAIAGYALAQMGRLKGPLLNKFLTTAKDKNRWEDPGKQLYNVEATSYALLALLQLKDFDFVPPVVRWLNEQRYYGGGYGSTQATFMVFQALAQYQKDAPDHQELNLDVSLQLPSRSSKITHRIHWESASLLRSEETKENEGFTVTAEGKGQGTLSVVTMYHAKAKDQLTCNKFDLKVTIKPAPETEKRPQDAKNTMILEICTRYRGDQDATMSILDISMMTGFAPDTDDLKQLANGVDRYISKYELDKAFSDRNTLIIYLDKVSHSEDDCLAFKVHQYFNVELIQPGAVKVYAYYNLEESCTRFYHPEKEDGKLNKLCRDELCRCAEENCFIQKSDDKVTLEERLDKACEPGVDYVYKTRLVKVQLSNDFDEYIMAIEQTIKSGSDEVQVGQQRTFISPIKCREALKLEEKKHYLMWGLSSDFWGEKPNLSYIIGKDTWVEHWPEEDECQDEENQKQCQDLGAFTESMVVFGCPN

B1: recombinant mature Complement Factor I made by in vitro furin cleavage of pro-rCFI (protein)
chain 1: KVTYTSQEDLVEKKCLAKKYTHLSCDKVFCQPWQRCIEGTCVCKLPYQCPKNGTAVCATNRRSFPTYCQQKSLECLHPGTKFLNNGTCTAEGKFSVSLKHGNTDSEGIVEVKLVDQDKTMFICKSSWSMREANVACLDLGFQQGADTQRRFKLSDLSINSTECLHVHCRGLETSLAECTFTKRRTMGYQDFADVVCYTQKADSPMDDFFQCVNGKYISQMKACDGINDCGDQSDELCCKACQGKGFHCKSGVCIPSQYQCNGEVDCITGEDEVGCAGFASVAQEETEILTADMDAERRRIKSLLPKLSCGVKNRMHI
chain 2: IVGGKRAQLGDLPWQVAIKDASGITCGGIYIGGCWILTAAHCLRASKTHRYQIWTTVVDWIHPDLKRIVIEYVDRIIFHENYNAGTYQNDIALIEMKKDGNKKDCELPRSIPACVPWSPYLFQPNDTCIVSGWGREKDNERVFSLQWGEVKLISNCSKFYGNRFYEKEMECAGTYDGSIDACKGDSGGPLVCMDANNVTYVWGVVSWGENCGKPEFPGVYTKVANYFDWISYHVGRPFISQYNV
  C3b inactivation (cofactor) assay with CFH, western blot of alpha1 and alpha2 bands: lane 8 which corresponds to a sample containing the in vitro cleaved mature rCFI, is the only sample containing bands that correspond to the α1 and α2 chains
  C3b inactivation assay, second western blot: The activity of the in vitro cleaved rCFI can be seen to be comparable to sCFI

B2: recombinant precursor Complement Factor I (pro-rCFI), His-tagged, expressed in CHO cells (protein)
chain: KVTYTSQEDLVEKKCLAKKYTHLSCDKVFCQPWQRCIEGTCVCKLPYQCPKNGTAVCATNRRSFPTYCQQKSLECLHPGTKFLNNGTCTAEGKFSVSLKHGNTDSEGIVEVKLVDQDKTMFICKSSWSMREANVACLDLGFQQGADTQRRFKLSDLSINSTECLHVHCRGLETSLAECTFTKRRTMGYQDFADVVCYTQKADSPMDDFFQCVNGKYISQMKACDGINDCGDQSDELCCKACQGKGFHCKSGVCIPSQYQCNGEVDCITGEDEVGCAGFASVTQEETEILTADMDAERRRIKSLLPKLSCGVKNRMHIRRKRIVGGKRAQLGDLPWQVAIKDASGITCGGIYIGGCWILTAAHCLRASKTHRYQIWTTVVDWIHPDLKRIVIEYVDRIIFHENYNAGTYQNDIALIEMKKDGNKKDCELPRSIPACVPWSPYLFQPNDTCIVSGWGREKDNERVFSLQWGEVKLISNCSKFYGNRFYEKEMECAGTYDGSIDACKGDSGGPLVCMDANNVTYVWGVVSWGENCGKPEFPGVYTKVANYFDWISYHVGRPFISQYNV
  C3b cofactor assay, western blot: only cleaved FI has activity, and Pro-FI is inactive

B3: serum CFI (Comptech) (protein)
chain: KVTYTSQEDLVEKKCLAKKYTHLSCDKVFCQPWQRCIEGTCVCKLPYQCPKNGTAVCATNRRSFPTYCQQKSLECLHPGTKFLNNGTCTAEGKFSVSLKHGNTDSEGIVEVKLVDQDKTMFICKSSWSMREANVACLDLGFQQGADTQRRFKLSDLSINSTECLHVHCRGLETSLAECTFTKRRTMGYQDFADVVCYTQKADSPMDDFFQCVNGKYISQMKACDGINDCGDQSDELCCKACQGKGFHCKSGVCIPSQYQCNGEVDCITGEDEVGCAGFASVTQEETEILTADMDAERRRIKSLLPKLSCGVKNRMHIRRKRIVGGKRAQLGDLPWQVAIKDASGITCGGIYIGGCWILTAAHCLRASKTHRYQIWTTVVDWIHPDLKRIVIEYVDRIIFHENYNAGTYQNDIALIEMKKDGNKKDCELPRSIPACVPWSPYLFQPNDTCIVSGWGREKDNERVFSLQWGEVKLISNCSKFYGNRFYEKEMECAGTYDGSIDACKGDSGGPLVCMDANNVTYVWGVVSWGENCGKPEFPGVYTKVANYFDWISYHVGRPFISQYNV
  C3b inactivation assay, positive control: iC3b cleaved by incubation with mature sCFI
